Test results from the supplement of paper PMC7877785.
± gives the uncertainty stated by the source.

Test: self-splicing fitness, log relative to wild type (ln ratio); higher = more splicing; Tetrahymena group I intron in knt gene, E. coli kanamycin selection, DiMSum; sequences stand for … in CUCUCU…GGAGGGAAAAGUUAUCAGGCAUGCACCUGGUAGCUAGUCUUUAAACCAAUAGAUUGCAUCGGUUUAAAAGGCAAGACCGUCAAAUUGCGGGAAAGGGGUCAACAGCCGUUCAGUACCAAGUCUCAGGGGAAACUUUGAGAUGGCCUUGCAAAGGGUAUGGUAAUAAGCUGACGGACAUGGUCCUAACCACGCAGCCAAGUCCUAAGUCAACAGAUCUUCUGUUGAUAUGGAUGCAGUUCACAGACUAAAUGUCGGUCGGGGAAGAUGUAUUCUUCUCAUAAGAUAUAGUCGGACCUCUCCUUAAUGGGAGCUAGCGGAUGAAGUGAUGCAACACUGGAGCCGCUGGGAACUAAUUUGUAUGCGAAAGUAUAUUGAUUAGUUUUGGAGUACUCGUGGUCG
Method in brief: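 Colonies from six replicate transformations of E. coli BL21(DE3) were pooled and amplicon-sequenced on an Illumina HiSeq 2500. The library placed an intron with all eight P1ex-region nucleotides randomised inside the knt kanamycin-resistance gene on pET-22b(+), and cells grew overnight at 37°C or 30°C on LB agar with or without 25 μg/mL kanamycin (plus 100 μg/mL carbenicillin, 50 μM IPTG, 0.2% rhamnose). Fitness is the DiMSum error-weighted combination of wild-type-normalised replicate fold changes, kanamycin versus none.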

Sequence	self-splicing fitness (ln) (30 °C)	self-splicing fitness (ln) (37 °C)
CACAAGCAAUAUUACGAGCG	-0.656 ± 0.099	0.331 ± 0.1
UUUCAGCAAUAUUACGACCA	-0.495 ± 0.19	-1.36 ± 0.23
CUUCAGCAAUAUUACGUUGU	-3.52 ± 0.18	-2.92 ± 0.28
AGAAAGCAAUAUUACGACGC	-0.72 ± 0.11	-0.219 ± 0.14
UCUCAGCAAUAUUACGACCC		-1.98 ± 0.23
UUAUAGCAAUAUUACGAUCA	-0.672 ± 0.15	-0.403 ± 0.17
ACACAGCAAUAUUACGCUUA	-1.75 ± 0.098	-1.7 ± 0.075
CGGGAGCAAUAUUACGAGGA	-4.2 ± 0.39	-2.53 ± 0.28
GGCGAGCAAUAUUACGACCC	-3.18 ± 0.44	-1.25 ± 0.5
CAGGAGCAAUAUUACGGCGU	-3.11 ± 0.2	-2.84 ± 0.28
CUCUAGCAAUAUUACGUCCC	-2.69 ± 0.27	-3.71 ± 0.39
ACAGAGCAAUAUUACGUCGG	-3.64 ± 0.16	-3.58 ± 0.23
AGCAAGCAAUAUUACGUAAA	-2.29 ± 0.14	-0.968 ± 0.15
AACGAGCAAUAUUACGAAUA		-1.63 ± 0.34
GGAGAGCAAUAUUACGGCUA	-2.06 ± 0.32	-1.25 ± 0.18
UCUUAGCAAUAUUACGUUAG	-3.78 ± 0.4	-1.17 ± 0.21
GUUCAGCAAUAUUACGGUGG	-2.39 ± 0.18	-1.96 ± 0.19
AUUCAGCAAUAUUACGUAUC	-3.62 ± 0.26	-1.04 ± 0.16
UGACAGCAAUAUUACGCCUU	-2.19 ± 0.12	-1.15 ± 0.12
UGAAAGCAAUAUUACGUCUG	-0.102 ± 0.071	0.773 ± 0.09
UGCUAGCAAUAUUACGGAAG	-3.4 ± 0.35	-2.31 ± 0.39
CACCAGCAAUAUUACGCCCC	-3.28 ± 0.38	
CCGAAGCAAUAUUACGUUCC	-3.94 ± 0.37	-2.81 ± 0.37
UUUAAGCAAUAUUACGAACC		0.0298 ± 0.37
UGCCAGCAAUAUUACGUUAC	-2.48 ± 0.23	-3.38 ± 0.31

Sequence	self-splicing fitness (ln) (30 °C)	self-splicing fitness (ln) (37 °C)
GAGCAGCAAUAUUACGGACC	-0.847 ± 0.11	-0.206 ± 0.16
GGCUAGCAAUAUUACGCUUA	-0.872 ± 0.1	-0.117 ± 0.11
AUUAAGCAAUAUUACGCUGC	-3.87 ± 0.27	-1.98 ± 0.22
CACUAGCAAUAUUACGGCGC	-2.98 ± 0.15	-1.11 ± 0.15
GGUGAGCAAUAUUACGCUAG		-1.65 ± 0.45
AUCAAGCAAUAUUACGUCAA	-3.14 ± 0.2	-0.928 ± 0.15
AUUCAGCAAUAUUACGCACG	-0.783 ± 0.16	-0.413 ± 0.16
UCUUAGCAAUAUUACGCUUU		-2.47 ± 0.32
GUUGAGCAAUAUUACGAUCA	-2.74 ± 0.37	0.523 ± 0.28
CGUUAGCAAUAUUACGGAUC	-2.18 ± 0.12	-1.13 ± 0.19
ACCAAGCAAUAUUACGAGCC	-3.61 ± 0.2	-1.08 ± 0.15
AGAAAGCAAUAUUACGAUGU	-0.998 ± 0.063	-0.229 ± 0.083
AGGGAGCAAUAUUACGACAC		-1.18 ± 0.29
UUGUAGCAAUAUUACGGGCA	-1.8 ± 0.21	-0.65 ± 0.2
AGUCAGCAAUAUUACGGCCA	-0.485 ± 0.14	-0.0722 ± 0.2
ACCCAGCAAUAUUACGUGCA	-0.703 ± 0.067	-0.601 ± 0.072
GAUGAGCAAUAUUACGAUCU		-1.86 ± 0.29
GCGCAGCAAUAUUACGCCCU		0.00379 ± 0.44
CUCUAGCAAUAUUACGUCAA	-4.19 ± 0.29	-3.45 ± 0.25
UAGGAGCAAUAUUACGGUCU	-1.36 ± 0.37	
AGCGAGCAAUAUUACGCACC	-0.941 ± 0.45	-0.411 ± 0.37
GUCCAGCAAUAUUACGGGAA	-0.0663 ± 0.071	-0.474 ± 0.077
UAUAAGCAAUAUUACGAAAC		-0.0191 ± 0.39
CAUCAGCAAUAUUACGCCCU	-2.55 ± 0.36	-1.54 ± 0.43
AGGUAGCAAUAUUACGACGU	0.156 ± 0.014	0.233 ± 0.033

Sequence	self-splicing fitness (ln) (30 °C)	self-splicing fitness (ln) (37 °C)
UACCAGCAAUAUUACGUCCG	-0.95 ± 0.058	-0.0389 ± 0.083
GUAUAGCAAUAUUACGGGGC		-1.61 ± 0.37
AAGAAGCAAUAUUACGCGAU	-3.59 ± 0.41	-2 ± 0.42
GACCAGCAAUAUUACGGUCG	-1.98 ± 0.077	-1.47 ± 0.11
GAACAGCAAUAUUACGCUAC	-4.08 ± 0.34	-1.64 ± 0.37
AGAUAGCAAUAUUACGGAGG	-4.37 ± 0.26	-3.22 ± 0.26
CCCGAGCAAUAUUACGCUGA	-3.44 ± 0.35	-2.26 ± 0.2
CACAAGCAAUAUUACGCCGC	-2.66 ± 0.28	-2.34 ± 0.37
GCGUAGCAAUAUUACGCGUU	-1.14 ± 0.19	-1.55 ± 0.22
GGAGAGCAAUAUUACGUCCU	-3.2 ± 0.24	-3.27 ± 0.43
ACAUAGCAAUAUUACGAGGU	-3.59 ± 0.16	-3.3 ± 0.15
CGGGAGCAAUAUUACGUGGU	-3.52 ± 0.2	-2.46 ± 0.19
GGCAAGCAAUAUUACGCGAC	-3.25 ± 0.23	-2.23 ± 0.27
GUGCAGCAAUAUUACGUCUA	-0.238 ± 0.078	0.283 ± 0.083
CACUAGCAAUAUUACGGUGU	-3.65 ± 0.15	-2.95 ± 0.21
GGGUAGCAAUAUUACGAGGG	-3.42 ± 0.33	-2.55 ± 0.33
CAAUAGCAAUAUUACGAUCA	-2.41 ± 0.17	-2.17 ± 0.16
ACGAAGCAAUAUUACGUGAG	-0.888 ± 0.056	-1.14 ± 0.087
ACUGAGCAAUAUUACGAAGU	-3.93 ± 0.3	-3.03 ± 0.31
CCUCAGCAAUAUUACGUACU	-3.42 ± 0.22	-1.98 ± 0.22
UAUCAGCAAUAUUACGGUAC	-3.28 ± 0.26	-2.54 ± 0.3
CGAGAGCAAUAUUACGGAUA	-2.25 ± 0.37	-1.82 ± 0.41
GUAAAGCAAUAUUACGUUGC	-2.38 ± 0.1	-3.2 ± 0.26
GGAUAGCAAUAUUACGAUCG	-0.534 ± 0.095	0.652 ± 0.14
GUACAGCAAUAUUACGAGGU	-4.68 ± 0.29	-1.97 ± 0.16

Sequence	self-splicing fitness (ln) (30 °C)	self-splicing fitness (ln) (37 °C)
CGUAAGCAAUAUUACGAUCA	-1.17 ± 0.11	-0.755 ± 0.12
CGUUAGCAAUAUUACGGUAC	-2.98 ± 0.24	-2.96 ± 0.38
AGGAAGCAAUAUUACGCAUG	-3.2 ± 0.16	-1.31 ± 0.12
GUAAAGCAAUAUUACGAACU	-0.845 ± 0.11	-0.0974 ± 0.14
GAUGAGCAAUAUUACGGUAG	-2.01 ± 0.14	-2.2 ± 0.21
GUGAAGCAAUAUUACGAAGU	-0.832 ± 0.14	-1.05 ± 0.16
GUCCAGCAAUAUUACGAUCG	-1.8 ± 0.14	-1.54 ± 0.14
AUUUAGCAAUAUUACGGACG	-2.26 ± 0.24	-1.75 ± 0.24
GCCUAGCAAUAUUACGUUAG	-4.33 ± 0.18	-2.4 ± 0.16
UCAAAGCAAUAUUACGAUCG	-0.659 ± 0.085	-0.141 ± 0.11
AACCAGCAAUAUUACGACGA	-0.496 ± 0.076	-0.38 ± 0.071
UCUUAGCAAUAUUACGUCCG	-1.41 ± 0.19	-1.59 ± 0.23
AACUAGCAAUAUUACGAAUG	-2.36 ± 0.11	-1.69 ± 0.12
UGAUAGCAAUAUUACGGUGU	-3.45 ± 0.18	-3.09 ± 0.24
GGCUAGCAAUAUUACGACCG	-0.745 ± 0.14	-0.188 ± 0.21
GAUCAGCAAUAUUACGUGCG	-1.16 ± 0.086	-0.336 ± 0.093
GUAUAGCAAUAUUACGUGAC	-2.65 ± 0.13	-1.65 ± 0.14
UCCUAGCAAUAUUACGGAGU	-3.81 ± 0.22	-1.3 ± 0.13
UUCUAGCAAUAUUACGUCGU	-3.47 ± 0.26	-2.19 ± 0.17
CUUGAGCAAUAUUACGGAUU	-4.83 ± 0.45	-3.23 ± 0.29
GGUAAGCAAUAUUACGACGA	-0.849 ± 0.098	0.225 ± 0.098
AUAAAGCAAUAUUACGCACA	0.246 ± 0.1	0.202 ± 0.15
CCACAGCAAUAUUACGGCUC	-3.39 ± 0.18	-1.79 ± 0.16
GAGGAGCAAUAUUACGAAAC	-2.22 ± 0.34	-1.87 ± 0.33
